Where two headings read alike, the source gives them in different places.
Columns and labels:
[1] = in vivo
Method: (§1) Serial dilutions were made from stock solution (approx. 1 mg/mL in PCR grade water, the exact concentration of the stock solution will be quantified with the spectro-photometric device Nanodrop (Thermo Scientific) based on the extinction coefficient at 260 nm) to generate working solutions in water from approx. 100 ng/mL up to approx. 250000 ng/mL.
(§2) Calibration standards and quality control samples (freshly prepared in plasma, 50 μL) were treated for protein denaturation with 150 μL of 4 M guanidine thiocyanate after addition of the internal standard. After vigorously mixing (20 min at 1600 rpm), 200 μL of a water/hexafluoroisopropanol/diisopropylethylamine solution (100:4:0.2, v/v/v) were added, followed by mixing (15 min at 1500 rpm). Then a clean-up step was performed by means of solid-phase-extraction cartridges (Waters, OASIS HLB 5 mg, 30 μm) after elution and evaporation to dryness (30-45 min at +40° C.) the samples were reconstituted in 200 μL of mobile phase (water/methanol/hexafluoroisopropanol/diisopropylethylamine (95/5/1/0.2, v/v/v/v)). After vortex mixing (10 min at 1500 rpm), an aliquot (20 μL) was injected into a LC-MS/MS system (50 μL loop).
(§3) A Shimadzu 30ADXR pump was used, equipped with a Waters Acquity C18 column (50×2.1 mm) at 60° C. […]

[2] = Tissue exposure study: liver concentration of unlabeled LNAs by LC-MS/MS; settings: analyzed by LC-MS/MS, FIG. 1
Method: as §1, §2, §3

[3] = Single dose PK experiment: liver concentration of tritium labeled LNAs by LSC; format: in vivo; settings: single dose 1 mg/kg; liver 24, 72 and 336 h after dosing; radioactivity by LSC, FIG. 2
Method: A single dose PK experiment with Example 3.b ([^3H]-compound 2 based on conjugate 4) and Example 3.c ([^3H]-compound 3 based on conjugate 7) at 1 mg/kg was done. LNAs were analyzed in liver 24, 72 and 336 h after dosing. The study will confirm the feasibility of oligonucleotides with radioactive conjugation.
A Packard Tri-carb 3100TR was used for LSC analysis.
In FIG. 2 the liver concentration of the tritium labeled compounds of Example 3.b (dotted line) and Example 3.c (continuous line) have been analyzed by LSC.

**Q.** Which “liver concentration (liver uptake)” value [1] does the source give for “5′-GN2-C6-ca G*A*G*t*t*a*c*t*t*g*c*c*a*A*C*T*-3′ (CAGAGTTACTTGCCAACT; 5'-GalNAc2-C6 conjugate, LNA and phosphorothioate, case key not given here, further chemistry not given here) [GalNAc LNA study compound A]” here?
**A.** high initial uptake in the liver plasma and a normal decrease over the time

**Q.** Which “liver concentration (liver uptake)” value [2] does the source give for “5′-G*A*G*t*t*a*c*t*t*g*c*c*a*A*C*T*-3′ (GAGTTACTTGCCAACT; all phosphorothioate, sugars by position and methylation of C not given here; further chemistry not fully specified) [LNA study compound A]” here?
**A.** lower level of uptake

**Q.** Which “liver concentration (liver uptake)” value [3] does the source give for “5′-GN2-C6-caG*A*G*t*t*a*c*t*t*g*c*c*a*A*C*T*-C6SH-[^3H]-NEM [Example 3.b]” here?
**A.** equivalent liver uptake as a therapeutic GalNAc LNA

— patent publication US20250170285A1, “RADIOLABELLED OLIGONUCLEOTIDES AND PROCESS FOR THEIR PREPARATION” (Hoffmann-La Roche Inc., priority 2018, published 2025)
